The results in this text go back to patent publication US11161912B2, “Heparanase-neutralizing monoclonal antibodies” (Technion Research & Development Foundation Limited, priority 2015, dated 2021).

For one assay, the system named is Cal-27 tongue carcinoma. The experiment in a line: Matrigel cell invasion, Cal-27 tongue carcinoma cells. The class given is cell-based, human. To be noted: Cal-27 cells, mAb 2 μg, 6 h. The protocol:
(§1) Cell invasion. Matrigel invasion assay was performed using modified Boyden chambers with polycarbonate Nucleopore membrane (Corning, Corning, N.Y.), essentially as described (17). Briefly, filters (6.5 mm in diameter, 8 μm pore-size) were coated with Matrigel (30 μl); Cells (2×10^5) in 100 μl of serum-free medium were seeded in triplicate on the upper part of each chamber, and the lower compartment was filled with 600 μl medium supplemented with 10% FCS. After incubation for 5 h at 37° C. in a 5% CO2 incubator, non-invading cells on the upper surface of the filter were wiped with a cotton swab, and migrated cells on the lower surface of the filter were fixed, stained with 0.5% crystal violet (Sigma) and counted by examination of at least seven microscopic fields.
(§2) FIG. 5A. Cell invasion. Cal-27 tongue carcinoma (left panels) and U87 glioma cells (right panels) (2×10^5) were plated onto Matrigel-coated filters in the presence of mouse IgM/IgG (upper panels), mAb 9E8 (2 μg; second left and middle panels). Invading cells adhering to the lower side of the membrane were visualized after 6 h. […] Lungs were harvested after 18 days, photographed (lower panel) and the number of metastatic lesions was counted (upper panel; p=0.001, 0.0006, 0.0001 for Con vs. Ab 1453, Con vs. mAb 9E8 and Con vs. SST0001, respectively). […]

In assay [1] the test system is LM2-4 human breast carcinoma cells. Description: LM2-4 breast carcinoma experimental lung metastasis. To be noted: mAb 500 μg/mouse with the cells, lungs after 18 days. The assay is classed as in vivo. The protocol:
Experimental metastasis. B16 BL6 mouse melanoma (2×10^5) or LM2-4 human breast cancer cells (2×10^6) were injected into the tail vein of C57/BL mice or SCID/Beige mice (respectively) together with the indicated compound, essentially as described (Hostettler N, et al. 2007, FASEB J 21(13):3562-3572). Lungs were harvested 18 days thereafter and metastases occurrence was determined following fixation by gross inspection and histology (Weissmann et al, 2016, Proc Natl Acad Sci USA 113:704-709).
FIG. 5A. Cell invasion. Cal-27 tongue carcinoma (left panels) and U87 glioma cells (right panels) (2×10^5) were plated onto Matrigel-coated filters in the presence of mouse IgM/IgG (upper panels), mAb 9E8 (2 μg; second left and middle panels). Invading cells adhering to the lower side of the membrane were visualized after 6 h. The number of invading cells per high power field is shown graphically at the lower panels. FIG. 5B, FIG. 5C. Tumor metastasis. FIG. 5B Mouse B16 melanoma cells (2×10^5) were inoculated into the tail vein of C57Bl/6 mice (n=7) together with rabbit IgG (300 μg; Con), Ab #1453 (250 μg), mAb 9E8 (500 μg) or SST0001 (400 μg). Lungs were harvested after 18 days, photographed (lower panel) and the number of metastatic lesions was counted (upper panel; p=0.001, 0.0006, 0.0001 for Con vs. Ab 1453, Con vs. mAb 9E8 and Con vs. SST0001, respectively). […]

Another assay relates to U87 glioma cells. Description: Matrigel cell invasion, U87 glioma cells. The assay is classed as cell-based, human. To be noted: mAb 2 μg, 6 h. The protocol:
as §1, §2

The target of another assay is T1, heparanase (Homo sapiens, UniProt Q9Y251).
T1 sequence (Q9Y251 36-543): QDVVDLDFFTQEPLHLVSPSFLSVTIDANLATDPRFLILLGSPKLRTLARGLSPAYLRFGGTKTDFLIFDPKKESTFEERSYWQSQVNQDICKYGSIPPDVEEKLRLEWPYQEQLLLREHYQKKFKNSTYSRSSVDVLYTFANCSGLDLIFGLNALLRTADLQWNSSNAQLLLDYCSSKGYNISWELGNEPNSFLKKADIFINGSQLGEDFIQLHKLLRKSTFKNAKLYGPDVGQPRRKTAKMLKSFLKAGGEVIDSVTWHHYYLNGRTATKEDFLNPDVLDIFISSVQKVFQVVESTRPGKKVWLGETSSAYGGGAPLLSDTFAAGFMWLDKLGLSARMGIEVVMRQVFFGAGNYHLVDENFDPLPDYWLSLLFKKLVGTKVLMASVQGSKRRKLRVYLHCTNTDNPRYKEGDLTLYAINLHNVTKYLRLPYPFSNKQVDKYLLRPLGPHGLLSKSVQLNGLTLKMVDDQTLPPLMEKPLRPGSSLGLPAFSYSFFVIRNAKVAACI
Description: Intracellular heparanase content of heparanase-transfected 293 cells (immunofluorescence, immunoblot). The following applies: cells over-expressing heparanase grown with mAb for two days. The assay is classed as cell-based. The protocol: FIG. 3A. HEK 293 cells were incubated with latent 65 kDa (upper panel) or GS3 constitutively active heparanase (1 μg/ml; third panel) and the indicated mAbs (10 μg/ml). The cell medium was aspirated at the time designated and cell lysates were subjected to immunoblotting applying anti-heparanase antibody (upper and third panels). […] Heparanase-transfected 293 cells were grown with control mouse IgM or mAb 9E8 for two days. Cells were then fixed with methanol and subjected to immunofluorescent staining applying anti heparanase antibody (second panel) or lysed and subjected to immunoblotting applying anti-heparanase antibody (fourth panel). Purified recombinant active heparanase (200 ng) was pre-incubated with control mouse IgM ( ? ), mAb 8A5 ( ? ), mAb 9E8 ( ? ), all at 2 μg/ml, for 2 h in serum-free RPMI medium on ice. The mixture was then applied onto ^35S-labeled ECM-coated dishes and heparanase activity was determined as described above (lower panel). FIG. 3B, C. ESb mouse T-lymphoma cells (5×10^5) were inoculated subcutaneously in NOD/SCID mice (n=5) and treated with PG545 (20 mg/kg, once a week) (B) or the indicated mAb (500 μg/mouse every other day) (C). FIG. 3C. […] Quantification of the extent of CD45 staining is shown graphically in the lower panel. […]

B1: mAb 9E8: monoclonal IgM raised against KKDC peptide (Lys158-Asn171) of heparanase; VH SEQ ID NO: 7, VL SEQ ID NO: 8 (antibody)
VH: EVKLLESGGGLVQPGGSLKLSCAASGFDFSRYWMSWVRQAPGKGLEWIGEINPDSSTINYTPSLKDKFIISRDNAKNTLYLQMSKVRSEDTALYYCARRGYEGNYAMDYWGQGTSVTVSSESQSFPNVFPLVSCESPLSDKNLVAMGCLAR
VL: DIVMTQAAPSVPVTPGESVSISCRSSKSLLHSNGNTYLYWFLQRPGQSPQLLIYRMSNLASGVPDRFSGSGSGTAFTLRISRVEAEDVGVYYCMQHLEYPFTFGSGTKLEIKRADAAPTVSIFPPSSEQLTSGGASVVCFL
modifications: IgM constant regions
As to B1, the cell invasion entry in the assay on Cal-27 tongue carcinoma and in the assay with U87 glioma cells was “inhibitory effect” in each case. Further, the experimental lung metastasis entry in assay [1] is “inhibitory effect”. Also, the “intracellular content of heparanase” value with heparanase is on record as “marked decrease”.
